# Assay results as given in paper PMC8053092, “Structural basis for substrate recognition and cleavage by the dimerization-dependent CRISPR–Cas12f nuclease” (Nucleic Acids Research, 2020).
# T1: Un1Cas12f1 D510A (Cas14a1; catalytically inactive) (UniProt A0A482D308 1-529, D510A)
# T1 sequence: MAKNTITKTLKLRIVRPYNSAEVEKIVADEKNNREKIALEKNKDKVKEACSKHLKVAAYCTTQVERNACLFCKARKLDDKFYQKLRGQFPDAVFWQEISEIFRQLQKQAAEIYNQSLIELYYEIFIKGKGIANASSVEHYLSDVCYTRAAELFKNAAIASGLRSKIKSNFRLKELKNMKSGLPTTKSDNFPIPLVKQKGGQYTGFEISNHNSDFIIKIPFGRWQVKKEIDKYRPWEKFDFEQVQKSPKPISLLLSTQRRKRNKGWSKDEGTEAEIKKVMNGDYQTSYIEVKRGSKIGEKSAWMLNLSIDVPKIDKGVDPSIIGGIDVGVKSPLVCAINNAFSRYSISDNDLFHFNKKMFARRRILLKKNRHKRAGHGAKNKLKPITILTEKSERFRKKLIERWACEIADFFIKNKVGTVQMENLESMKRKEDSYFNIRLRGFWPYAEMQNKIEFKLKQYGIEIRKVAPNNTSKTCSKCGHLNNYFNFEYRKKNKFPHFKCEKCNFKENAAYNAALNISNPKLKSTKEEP
# T2: Un1Cas12f1 (Cas14a1) (UniProt A0A482D308 1-529)
# T2 sequence: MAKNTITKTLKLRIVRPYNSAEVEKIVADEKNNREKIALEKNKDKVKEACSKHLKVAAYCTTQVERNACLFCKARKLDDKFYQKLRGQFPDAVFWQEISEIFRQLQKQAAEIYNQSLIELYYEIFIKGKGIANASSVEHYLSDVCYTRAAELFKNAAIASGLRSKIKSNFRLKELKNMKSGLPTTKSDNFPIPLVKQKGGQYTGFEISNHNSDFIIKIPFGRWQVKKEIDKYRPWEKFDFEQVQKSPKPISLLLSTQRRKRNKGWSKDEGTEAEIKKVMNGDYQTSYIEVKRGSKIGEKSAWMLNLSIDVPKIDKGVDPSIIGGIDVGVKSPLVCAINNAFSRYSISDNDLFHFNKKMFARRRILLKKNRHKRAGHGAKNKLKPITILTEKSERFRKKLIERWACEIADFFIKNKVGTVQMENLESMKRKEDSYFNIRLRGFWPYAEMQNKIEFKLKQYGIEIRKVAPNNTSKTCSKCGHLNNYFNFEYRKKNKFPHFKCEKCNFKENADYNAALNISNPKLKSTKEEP
# Legend:
# [1] = target: the molecule itself; experiment: cryo-EM structure; Cas12f D510A with sgRNA (222 nt) and 60-bp target dsDNA (TTTA PAM), ratio 1:1.2:1.3, 37°C, purified by SEC in 25 mM Tris-HCl pH 7.6, 150 mM NaCl, 2 mM DTT, 1 mM MgCl2; 3.1 Å
# [2] = target: the molecule itself; experiment: cryo-EM structure; Cas12f with sgRNA, ratio 1:1.2, 37°C for 30 min in 25 mM Tris-HCl pH 7.6, 150 mM NaCl, 2 mM DTT, 1 mM MgCl2; no target DNA; 3.9 Å
# [3] = target: T1, Un1Cas12f1 D510A (Cas14a1; …); experiment: cryo-EM (3.1 A); SEC; 1 mM Mg2+; Complex assembly in 25 mM Tris-HCl pH 7.6, 150 mM NaCl, 2 mM DTT, 1 mM MgCl2, 37 C 30 min; SEC in same buffer; conditions: protein: recombinant; tags: N-terminal 10xHis-MBP removed by TEV; chain copies: 2; sgRNA; target and non-target DNA strands blunt 60 bp; guide:target heteroduplex 19-20 bp
# Un1Cas12f1 (Cas14a1) = target: T2, Un1Cas12f1 (Cas14a1); experiment: cryo-EM (3.9 A); SEC; 1 mM Mg2+; no target DNA; Complex assembly in 25 mM Tris-HCl pH 7.6, 150 mM NaCl, 2 mM DTT, 1 mM MgCl2, 37 C 30 min; SEC in same buffer; conditions: protein: recombinant; tags: N-terminal 10xHis-MBP removed by TEV; chain copies: 2; four stem-loops, two AR:R duplexes; 1 copy per Cas12f dimer
binder,measurement,setting,value
"Un1Cas12f1 D510A (inactive Cas12f mutant used for the Cas12f-sgRNA-target DNA ternary complex) (enzyme, UniProt A0A482D308 1-529, looked up, Cas12f (UnCas12f1 / Un1Cas12f1, also known as Cas14), full length, 529 amino acids, 61.5 kDa; plasmid Addgene #112500; catalytic D510 changed to alanine; three N-terminal and four C-terminal residues are not modelled; also called Cas12f D510A; Cas12f.2; source: E. coli BL21(DE3), purified (Ni-NTA, TEV cleavage, HiTrap SP, Superdex 200); not shown: 10xHis-MBP, N-terminal, cleaved) MAKNTITKTLKLRIVRPYNSAEVEKIVADEKNNREKIALEKNKDKVKEACSKHLKVAAYCTTQVERNACLFCKARKLDDKFYQKLRGQFPDAVFWQEISEIFRQLQKQAAEIYNQSLIELYYEIFIKGKGIANASSVEHYLSDVCYTRAAELFKNAAIASGLRSKIKSNFRLKELKNMKSGLPTTKSDNFPIPLVKQKGGQYTGFEISNHNSDFIIKIPFGRWQVKKEIDKYRPWEKFDFEQVQKSPKPISLLLSTQRRKRNKGWSKDEGTEAEIKKVMNGDYQTSYIEVKRGSKIGEKSAWMLNLSIDVPKIDKGVDPSIIGGIDVGVKSPLVCAINNAFSRYSISDNDLFHFNKKMFARRRILLKKNRHKRAGHGAKNKLKPITILTEKSERFRKKLIERWACEIADFFIKNKVGTVQMENLESMKRKEDSYFNIRLRGFWPYAEMQNKIEFKLKQYGIEIRKVAPNNTSKTCSKCGHLNNYFNFEYRKKNKFPHFKCEKCNFKENAAYNAALNISNPKLKSTKEEP",stoichiometry N,[1],2
"Cas12f (UnCas12f1), used for the Cas12f-sgRNA binary complex (enzyme, UniProt A0A482D308 1-529, looked up, Cas12f (UnCas12f1 / Un1Cas12f1, also known as Cas14), full length, 529 amino acids; plasmid Addgene #112500; The methods say only 'Cas12f proteins' for the binary complex, set against 'Cas12f D510A mutant proteins' for the ternary complex; also called Un1Cas12f1; wild-type Cas12f; source: E. coli BL21(DE3), purified (Ni-NTA, TEV cleavage, HiTrap SP, Superdex 200); not shown: 10xHis-MBP, …) MAKNTITKTLKLRIVRPYNSAEVEKIVADEKNNREKIALEKNKDKVKEACSKHLKVAAYCTTQVERNACLFCKARKLDDKFYQKLRGQFPDAVFWQEISEIFRQLQKQAAEIYNQSLIELYYEIFIKGKGIANASSVEHYLSDVCYTRAAELFKNAAIASGLRSKIKSNFRLKELKNMKSGLPTTKSDNFPIPLVKQKGGQYTGFEISNHNSDFIIKIPFGRWQVKKEIDKYRPWEKFDFEQVQKSPKPISLLLSTQRRKRNKGWSKDEGTEAEIKKVMNGDYQTSYIEVKRGSKIGEKSAWMLNLSIDVPKIDKGVDPSIIGGIDVGVKSPLVCAINNAFSRYSISDNDLFHFNKKMFARRRILLKKNRHKRAGHGAKNKLKPITILTEKSERFRKKLIERWACEIADFFIKNKVGTVQMENLESMKRKEDSYFNIRLRGFWPYAEMQNKIEFKLKQYGIEIRKVAPNNTSKTCSKCGHLNNYFNFEYRKKNKFPHFKCEKCNFKENADYNAALNISNPKLKSTKEEP",binding result,[2],binds
sgRNA + 60-bp target dsDNA (TTTA PAM) (mixed) RNA: CUUCACUGAUAAAGUGGAGAACCGCUUCACCAAAAGCUGUCCCUUAGGGGAUUAGAACUUGAGUGAAGGUGGGCUGCUUGCAUCAGCCUAAUGUCGAGAAGUGCUUUCUUCGGAAAGUAACCCUCGAAACAAAUUCAUUUUUCCUCUCCAAUUCUGCACAAGAAAGUUGCAGAACCCGAAUAGACGAAUGAAGGAAUGCAACAGUUGACCCAACGUCGCCGG DNA 1: GCTGATGCATCTAGATTGTGCACGCCGGCGACGTTGGGTCAACTTAAATACGTAAGGTGC DNA 2: GCACCTTACGTATTTAAGTTGACCCAACGTCGCCGGCGTGCACAATCTAGATGCATCAGC,binding result,[3],binds
"sgRNA (full length, 222 nt) (structured_RNA) RNA: CUUCACUGAUAAAGUGGAGAACCGCUUCACCAAAAGCUGUCCCUUAGGGGAUUAGAACUUGAGUGAAGGUGGGCUGCUUGCAUCAGCCUAAUGUCGAGAAGUGCUUUCUUCGGAAAGUAACCCUCGAAACAAAUUCAUUUUUCCUCUCCAAUUCUGCACAAGAAAGUUGCAGAACCCGAAUAGACGAAUGAAGGAAUGCAACAGUUGACCCAACGUCGCCGG",binding result,Un1Cas12f1 (Cas14a1),binds
